Biological target: DNA polymerase beta (pol beta), [13CH3-Met,13CH3-Ile] labelled (UniProt P06746 1-335)
Experiment: NMR 1H-13C HMQC chemical shift perturbation, methyl-TROSY CPMG; binary complex; 5 mM MgCl2; ~175 uM pol beta, 10% excess DNA; D2O buffer: 50 mM Tris-d11 pH 7.6, 150 mM KCl, 5 mM MgCl2 (none for apoenzyme), 1 mM CDTA, 1 mM DTT, 0.1 mM AEBSF, 0.04% NaN3, 50 uM DSS; 35 C for assignment of

B1: 1-nt-gapped double hairpin DNA (templating dT in gap) (structured_DNA)
DNA: GGCGAAGCCTGGTGCGAAGCACC
B1: binds.

— paper PMC6101544
